Measurements taken from publication PMC11054746, “GRPR-Antagonists Carrying DOTAGA-Chelator via Positively Charged Linkers: Perspectives for Prostate Cancer Theranostics” (Pharmaceutics, 2024).
Where two headings read alike, the source gives them in different places.

Tests used:
PC-3 xenografts = experiment: in vivo; design: species or system BALB/C nu/nu mice; settings: mouse; for Kidneys uptake: BALB/C nu/nu
Protocol: (§1) All in vivo studies were performed following European guidelines on laboratory animal protection. The in vivo stability experiments were carried out in healthy male Swiss albino mice; the study protocol was approved by the Department of Agriculture and Veterinary Service of the Prefecture of Athens (protocol number #440448, 01-06-2021). The biodistribution, in vivo targeting specificity assay, and SPECT/CT imaging experiments were carried out on BALB/C nu/nu mice. The Ethics Committee for Animal Research in Uppsala (Sweden) approved the latter in vivo animal studies (permit number 00473/21). The BALB/C nu/nu mice were implanted with GRPR-positive prostate cancer xenografts by subcutaneous injection on the right hind leg of PC-3 cells suspended in PBS (7 × 10^6 cells/mouse) four weeks before the biodistribution studies.
(§2) The mice were iv injected with 40 pmol peptide (30 kBq in a total volume of 100 μL 1% bovine serum albumin (BSA) in PBS). […] At the indicated time points, mice were euthanized under anesthesia. The organs of interest were collected, weighed, and the sample radioactivity content was measured on the gamma counter. The percentage of injected activity per gram (%IA/g) of collected tumors, organs and tissues, the %IA for the remaining gastrointestinal tract and carcass, as well as the tumor-to-organ ratios (T/O) were calculated.

in vivo = experiment: in vivo; design: species or system BALB/C nu/nu mice; settings: BALB/C nu/nu, mouse, iv, total radioactivity; for tissue to tissue ratio at 4 h: Tumor-to-organ ratio
Protocol: as §1, §2

human GRPR = molecular target: T1, human GRPR (Homo sapiens, UniProt P30550); experiment: Affinity measurements in real time (LigandTracer) on PC-3 cells; format: binding; settings: room temperature, 1:2 fitting interaction model
T1 construct: host or cells: PC-3 human prostate adenocarcinoma cells
T1 sequence (P30550 whole entry): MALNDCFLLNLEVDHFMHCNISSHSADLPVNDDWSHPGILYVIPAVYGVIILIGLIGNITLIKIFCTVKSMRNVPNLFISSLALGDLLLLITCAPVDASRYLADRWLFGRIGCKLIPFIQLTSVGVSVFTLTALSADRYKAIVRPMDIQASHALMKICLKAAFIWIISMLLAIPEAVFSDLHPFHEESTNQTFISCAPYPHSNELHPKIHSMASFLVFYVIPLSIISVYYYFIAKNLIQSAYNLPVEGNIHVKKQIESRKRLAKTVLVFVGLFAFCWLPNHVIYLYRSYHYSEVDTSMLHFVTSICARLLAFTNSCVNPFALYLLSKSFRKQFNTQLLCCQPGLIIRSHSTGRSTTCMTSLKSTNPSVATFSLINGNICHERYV
Protocol: The association curves were recorded at 1 nM and 3 nM of the radiolabeled peptides for 300 min. After reaching the plateau, the medium containing the radioligand was replaced with fresh medium and the dissociation curve was measured for about 16 h. The obtained sensorgrams were analyzed using TracerDrawer (Ridgeview Instruments AB, Uppsala, Sweden) and the dissociation constants (KD) were calculated.

[1] = Radiochemical stability: indium release in PBS or with EDTA excess, by iTLC; format: physicochemical; settings: room temperature, 0.2 M citric acid, mean ± sd, n = 3
Protocol: The radiochemical yield was analyzed with instant thin layer chromatography (iTLC) strips (Agilent Technologies, Santa Clara, CA, USA), using 0.2 M citric acid buffer as a mobile phase (Rf = 0 for the radiolabeled peptide and Rf = 1 for free indium). The iTLC results were analyzed using Cyclone® Plus Phosphorimager (PerkinElmer, Hägersten, Sweden). The radiochemical stability was determined by incubating the radiolabeled compounds with phosphate-buffered saline (PBS) or a 1000-fold molar excess of ethylenediaminetetraacetic acid (EDTA) for 1 h at room temperature. The percentage of indium release was assessed by iTLC using 0.2 M citric acid as mobile phase. Stability tests were performed in triplicate for each compound.

PC-3 cells = experiment: Cellular internalization; format: cell-based, human; settings: 1 nM, acid wash, mean of 3 dishes ± sd, normalized to maximum cell association at 24 h
Protocol: For the cellular internalization assay, PC-3 cells (1 × 10^6 cells/dish) were used. The cells were incubated with 1 mL (1 nM) of solution containing the radiolabeled peptide under evaluation. At the 4 h and 24 h time points, the cells were treated with an acid wash (0.2 M glycine buffer with 0.15 M NaCl and 4 M urea, pH 2) for 5 min on ice to remove the membrane-bound peptide. After collection of acid fractions, the cells were treated with 1 M NaOH for at least 30 min and the cell debris were scraped and collected. The activity content in samples was measured using the gamma counter.

[2] = 40 pmol, Carcass (whole body) uptake
[3] = 40 pmol, GI (gastrointestinal tract, GIT) uptake

For CC(C)C[C@H](NC(=O)C[C@H](O)[C@H](CC(C)C)NC(=O)[C@H](Cc1c[nH]cn1)NC(=O)CN(C)C(=O)[C@@H](NC(=O)[C@H](C)NC(=O)[C@H](Cc1c[nH]c2ccccc12)NC(=O)[C@H](CCC(N)=O)NC(=O)[C@@H](Cc1ccccc1)NC(=O)COCCOCCNC(=O)CCC(C(=O)O)N1CCN(CC(=O)O)CCN(CC(=O)O)CCN(CC(=O)O)CC1)C(C)C)C(N)=O (stereo partly drawn) [[^111In]In-AU-RM26-M1, [^111In]In-DOTAGA-PEG2-[Sar^11]RM26, metal not drawn, reference compound], the Kidneys uptake (PC-3 xenografts; iv, 40 pmol, 4 h) was ~ 6.5 %IA/g, the Tumor uptake (PC-3 xenografts; iv, 40 pmol, 4 h) was 6 ± 2 %IA/g and the tissue uptake at 4 h (in vivo; 40 pmol, Blood uptake) was 0.04 ± 0.01 %ID/g. The tissue uptake at 4 h (in vivo; 40 pmol, Bone uptake) was 0.05 ± 0.01 %ID/g, the tissue uptake dose at 4 h (in vivo; [2]) was 1.3 ± 0.5 %ID and the tissue uptake dose at 4 h (in vivo; [3]) was 0.9 ± 0.1 %ID. The tissue uptake at 4 h (in vivo; 40 pmol, Kidneys uptake) was 6.4 ± 0.6 %ID/g, the tissue uptake at 4 h (in vivo; 40 pmol, Liver uptake) was 0.2 ± 0.1 %ID/g and the tissue uptake at 4 h (in vivo; 40 pmol, Lungs uptake) was 0.08 ± 0.05 %ID/g. The tissue uptake at 4 h (in vivo; 40 pmol, Muscle uptake) was 0.04 ± 0.02 %ID/g, the tissue uptake at 4 h (in vivo; 40 pmol, Pancreas uptake) was 0.2 ± 0.1 %ID/g and the tissue uptake at 4 h (in vivo; 40 pmol, Small Int uptake) was 0.1 ± 0.04 %ID/g. For the same compound, the tissue uptake at 4 h (in vivo; 40 pmol, Spleen uptake) was 0.08 ± 0.02 %ID/g, the tissue to tissue ratio at 4 h (in vivo; 40 pmol, Blood) was 133 ± 26 and the tissue to tissue ratio at 4 h (in vivo; 40 pmol, Bone) was 117 ± 16. For the same compound, the tissue to tissue ratio at 4 h (in vivo; 40 pmol, Kidneys) was 0.9 ± 0.2, the tissue to tissue ratio at 4 h (in vivo; 40 pmol, Liver) was 39 ± 5 and the tissue to tissue ratio at 4 h (in vivo; 40 pmol, Lungs) was 81 ± 25. For the same compound, the tissue to tissue ratio at 4 h (in vivo; 40 pmol, Muscle) was 234 ± 154, the tissue to tissue ratio at 4 h (in vivo; 40 pmol, Pancreas) was 27 ± 4 and the tissue to tissue ratio at 4 h (in vivo; 40 pmol, Small Int) was 57 ± 7. The tissue to tissue ratio at 4 h (in vivo; 40 pmol, Spleen) was 72 ± 9.5.

With CC(C)C[C@H](NC(=O)C[C@H](O)[C@H](CC(C)C)NC(=O)[C@H](Cc1c[nH]cn1)NC(=O)CN(C)C(=O)[C@@H](NC(=O)[C@H](C)NC(=O)[C@H](Cc1c[nH]c2ccccc12)NC(=O)[C@H](CCC(N)=O)NC(=O)[C@@H](Cc1ccccc1)NC(=O)[C@H](CCCNC(=N)N)NC(=O)COCCOCCNC(=O)CCC(C(=O)O)N1CCN(CC(=O)O)CCN(CC(=O)O)CCN(CC(=O)O)CC1)C(C)C)C(N)=O (stereo partly drawn) [[^111In]In-AU-RM26-M3, metal not drawn] the Kidneys uptake (PC-3 xenografts; iv, 40 pmol, 4 h) was ~ 3.5 %IA/g, the tissue uptake at 4 h (in vivo; 40 pmol, Blood uptake) was 0.024 ± 0.002 %ID/g and the tissue uptake at 4 h (in vivo; 40 pmol, Bone uptake) was 0.06 ± 0.01 %ID/g. For the same compound, the tissue uptake dose at 4 h (in vivo; [2]) was 1.7 ± 0.3 %ID, the tissue uptake dose at 4 h (in vivo; [3]) was 1.3 ± 0.9 %ID and the tissue uptake at 4 h (in vivo; 40 pmol, Kidneys uptake) was 3.4 ± 0.2 %ID/g. For the same compound, the tissue uptake at 4 h (in vivo; 40 pmol, Liver uptake) was 0.17 ± 0.01 %ID/g, the tissue uptake at 4 h (in vivo; 40 pmol, Lungs uptake) was 0.12 ± 0.01 %ID/g and the tissue uptake at 4 h (in vivo; 40 pmol, Muscle uptake) was 0.03 ± 0.01 %ID/g. The tissue uptake at 4 h (in vivo; 40 pmol, Pancreas uptake) was 0.06 ± 0.01 %ID/g, the tissue uptake at 4 h (in vivo; 40 pmol, Small Int uptake) was 0.08 ± 0.03 %ID/g and the tissue uptake at 4 h (in vivo; 40 pmol, Spleen uptake) was 0.08 ± 0.01 %ID/g. It also gave a tissue uptake at 4 h (in vivo; 40 pmol, Tumor uptake) of 2.5 ± 0.6 %ID/g, a tissue to tissue ratio at 4 h (in vivo; 40 pmol, Blood) of 104 and a tissue to tissue ratio at 4 h (in vivo; 40 pmol, Bone) of 39 ± 8. It also gave a tissue to tissue ratio at 4 h (in vivo; 40 pmol, Kidneys) of 0.7 ± 0.2, a tissue to tissue ratio at 4 h (in vivo; 40 pmol, Liver) of 15 ± 4.5 and a tissue to tissue ratio at 4 h (in vivo; 40 pmol, Lungs) of 33 ± 22. The tissue to tissue ratio at 4 h (in vivo; 40 pmol, Muscle) was 75 ± 18, the tissue to tissue ratio at 4 h (in vivo; 40 pmol, Pancreas) was 45 ± 15 and the tissue to tissue ratio at 4 h (in vivo; 40 pmol, Small Int) was 35 ± 15. It also gave a tissue to tissue ratio at 4 h (in vivo; 40 pmol, Spleen) of 31 ± 9, a Kd (human GRPR; read-out: KD1) of 0.245 nM and a Kd (human GRPR; read-out: KD2) of 1.4 nM.

With CC(C)C[C@H](NC(=O)C[C@H](O)[C@H](CC(C)C)NC(=O)[C@H](Cc1c[nH]cn1)NC(=O)CN(C)C(=O)[C@@H](NC(=O)[C@H](C)NC(=O)[C@H](Cc1c[nH]c2ccccc12)NC(=O)[C@H](CCC(N)=O)NC(=O)[C@@H](Cc1ccccc1)NC(=O)CN1CCC(NC(=O)COCCOCCNC(=O)CCC(C(=O)O)N2CCN(CC(=O)O)CCN(CC(=O)O)CCN(CC(=O)O)CC2)CC1)C(C)C)C(N)=O (stereo partly drawn) [[^111In]In-AU-RM26-M2, metal not drawn] the “kidney uptake at 24 h pi retained as % of the 4 h renal value” (PC-3 xenografts) was > 80%, the “pancreas uptake at 24 h pi as % of the initial 4 h uptake” value (PC-3 xenografts) was 40% and the “tumor uptake at 24 h pi as % of the 4 h value” (PC-3 xenografts) was 70%. The tissue uptake at 4 h (in vivo; 40 pmol, Blood uptake) was 0.003 ± 0.002 %ID/g, the tissue uptake at 24 h (in vivo; 40 pmol, Blood uptake) was 0.01 ± 0.002 %ID/g and the tissue uptake at 4 h (in vivo; 40 pmol, Bone uptake) was 0.05 ± 0.03 %ID/g. It also gave a tissue uptake at 24 h (in vivo; 40 pmol, Bone uptake) of 0.04 ± 0.02 %ID/g, a tissue uptake dose at 4 h (in vivo; [2]) of 0.8 ± 0.1 %ID and a tissue uptake dose at 24 h (in vivo; 40 pmol, Carcass uptake) of 0.5 ± 0.2 %ID. The tissue uptake dose at 4 h (in vivo; [3]) was 0.8 ± 0.5 %ID, the tissue uptake dose at 24 h (in vivo; [3]) was 0.13 ± 0.03 %ID and the tissue uptake at 4 h (in vivo; 40 pmol, Kidneys uptake) was 5 ± 1 %ID/g. For the same compound, the tissue uptake at 24 h (in vivo; 40 pmol, Kidneys uptake) was 4.1 ± 0.4 %ID/g, the tissue uptake at 4 h (in vivo; 40 pmol, Liver uptake) was 0.12 ± 0.01 %ID/g and the tissue uptake at 24 h (in vivo; 40 pmol, Liver uptake) was 0.11 ± 0.01 %ID/g. It also gave a tissue uptake at 4 h (in vivo; 40 pmol, Lungs uptake) of 0.05 ± 0.01 %ID/g, a tissue uptake at 24 h (in vivo; 40 pmol, Lungs uptake) of 0.05 ± 0.02 %ID/g and a tissue uptake at 4 h (in vivo; 40 pmol, Muscle uptake) of 0.02 ± 0.01 %ID/g. For the same compound, the tissue uptake at 24 h (in vivo; 40 pmol, Muscle uptake) was 0.02 ± 0.01 %ID/g, the tissue uptake at 4 h (in vivo; 40 pmol, Pancreas uptake) was 0.37 ± 0.08 %ID/g and the tissue uptake at 24 h (in vivo; 40 pmol, Pancreas uptake) was 0.15 ± 0.03 %ID/g. It also gave a tissue uptake at 4 h (in vivo; 40 pmol, Small Int uptake) of 0.1 ± 0.06 %ID/g, a tissue uptake at 24 h (in vivo; 40 pmol, Small Int uptake) of 0.06 ± 0.03 %ID/g and a tissue uptake at 4 h (in vivo; 40 pmol, Spleen uptake) of 0.07 ± 0.02 %ID/g. For the same compound, the tissue uptake at 24 h (in vivo; 40 pmol, Spleen uptake) was 0.07 ± 0.01 %ID/g, the tissue uptake at 4 h (in vivo; 40 pmol, Tumor uptake) was 7 ± 2 %ID/g and the tissue uptake at 24 h (in vivo; 40 pmol, Tumor uptake) was 4.9 ± 0.7 %ID/g. For the same compound, the tissue uptake dose at 4 h (in vivo; Carcass uptake, Block) was 1 ± 0.5 %ID, the tissue uptake dose at 4 h (in vivo; GI (gastrointestinal tract, GIT) uptake, Block) was 0.46 ± 0.03 %ID and the “released [111In]In3+, ×1000 EDTA (1 h)” value ([1]; 1000-fold molar excess of EDTA) was 5.7 ± 0.7% (3). The “released [111In]In3+, PBS” value ([1]; incubation in PBS, 1 h) was 5.7 ± 0.2% (3) and the “internalized fraction at 24 h” value (PC-3 cells) was 23 ± 2%.
